Read-outs that look alike come from different tables or passages of the source.
What was measured:
Experiment in all cases: EMSA
[1] = target: T1, YBX1 (human, UniProt P67809 1-324)
[2] = target: T2, IMP1 (human, UniProt Q9NZI8 1-577)
[3] = target: T2, IMP1; remark: listed apart in the source
[4] = target: T1, YBX1; remark: listed apart in the source
[5] = target: IMP1_KH1-4mut (human, UniProt Q9NZI8 1-577, K213E;E214L;K294E;E295L;K423E;K424L;K505E;G506L)
[6] = target: T1, YBX1; remark: listed apart in the source
[7] = target: T2, IMP1; remark: listed apart in the source
[8] = target: T1, YBX1; remark: listed apart in the source
[9] = target: T2, IMP1; remark: listed apart in the source

T2 sequence (Q9NZI8 whole entry): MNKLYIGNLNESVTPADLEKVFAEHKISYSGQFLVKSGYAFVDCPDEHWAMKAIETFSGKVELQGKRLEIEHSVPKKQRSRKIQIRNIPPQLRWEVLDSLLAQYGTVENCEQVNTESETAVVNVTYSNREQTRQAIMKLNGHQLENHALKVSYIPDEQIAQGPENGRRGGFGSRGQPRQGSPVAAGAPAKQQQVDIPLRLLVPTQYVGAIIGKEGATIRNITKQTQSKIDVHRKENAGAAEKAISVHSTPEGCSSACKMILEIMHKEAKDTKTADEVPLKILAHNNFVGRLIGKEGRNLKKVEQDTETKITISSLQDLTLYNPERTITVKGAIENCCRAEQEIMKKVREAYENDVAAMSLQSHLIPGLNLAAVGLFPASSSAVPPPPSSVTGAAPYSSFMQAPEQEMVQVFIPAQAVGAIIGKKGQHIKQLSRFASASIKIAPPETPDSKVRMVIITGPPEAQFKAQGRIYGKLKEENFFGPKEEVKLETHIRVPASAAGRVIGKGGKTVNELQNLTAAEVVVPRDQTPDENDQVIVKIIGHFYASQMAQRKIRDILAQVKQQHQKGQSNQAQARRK
T1 sequence (P67809 whole entry): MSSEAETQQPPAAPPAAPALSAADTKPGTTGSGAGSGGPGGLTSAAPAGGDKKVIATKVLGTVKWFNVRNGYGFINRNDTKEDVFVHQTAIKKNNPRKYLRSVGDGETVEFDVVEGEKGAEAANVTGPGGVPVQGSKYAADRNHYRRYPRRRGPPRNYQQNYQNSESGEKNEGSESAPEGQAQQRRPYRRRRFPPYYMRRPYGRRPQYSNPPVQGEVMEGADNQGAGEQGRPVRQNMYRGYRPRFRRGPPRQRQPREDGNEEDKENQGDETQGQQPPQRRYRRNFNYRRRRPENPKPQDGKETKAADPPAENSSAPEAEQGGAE
IMP1_KH1-4mut, sequence (Q9NZI8 whole entry K213E/E214L/K294E/E295L/K423E/K424L/K505E/G506L): as the sequence (Q9NZI8 whole entry) above, with K213E, E214L, K294E, E295L, K423E, K424L, K505E, G506L counted along it

B1: ACTB exon 5 (ssRNA)
RNA: not shown
binding result [1]: binds | binding result [2]: no binding

B2: ACTB 3'UTR (ssRNA)
RNA: GGCGGACUAUGACUUAGUUGCGUUACACCCUUUCUUGACAAAACCUAACUUGCGCAGAAAACAAGAUGAGAUUGGCAUGGCUUUAUUUGUUUUUUUUGUUUUGUUUUGGUUUUUUUUUUUUUUUUGGCUUGACUCAGGAUUUAAAAACUGGAACGGUGAAGGUGACAGCAGUCGGUUGGAGCGAGCAUCCCCCAAAGUUCACAAUGUGGCCGAGGACUUUGAUUGCACAUUGUU
binding result [3]: binds | binding result [4]: binds

B3: C-MYC CRD (ssRNA)
RNA: GGACCAGAUCCCGGAGUUGGAAAACAAUGAAAAGGCCCCCAAGGUAGUUAUCCUUAAAAAAGCCACAGCAUACAUCCUGUCCGUCCAAGCAGAGGAGCAAAAGCUCAUUUCUGAAGAGGACUUGUUGCGGAAACGACGAGAACAGUUGAAACACAAACUUGAACAGCUACGGAACUCUUGUGCG
binding signal [5]: ~10 fold reduction vs wild-type IMP1 | binding result [6]: binds | binding result [7]: binds

B4: C-MYC 3'UTR (ssRNA)
RNA: GGAAAAGUAAGGAAAACGAUUCCUUCUAACAGAAAUGUCCUGAGCAAUCACCUAUGAACUUGUUUCAAAUGCAUGAUCAAAUGCAACCUCACAACCUUGGCUGAGUCUUGAGACUGAAAGAUUUAGCCAUAAUGUAAACUGCCUCAAAUUGGACUUUGGGCAUAAAAGAACUUUUUUAUGCUUACCAUCUUUUUUUUUUCUUUAACAGAUUUGUAUUUAAGAAUUG
binding result [8]: binds | binding result [9]: binds

Source: doi:10.1101/558098
